Molecular target: PTH receptor (PTHR1) (human) (UniProt Q03431)
Assay: cell-based or functional assay

Sequence of UniProt Q03431 (Q03431 27-593): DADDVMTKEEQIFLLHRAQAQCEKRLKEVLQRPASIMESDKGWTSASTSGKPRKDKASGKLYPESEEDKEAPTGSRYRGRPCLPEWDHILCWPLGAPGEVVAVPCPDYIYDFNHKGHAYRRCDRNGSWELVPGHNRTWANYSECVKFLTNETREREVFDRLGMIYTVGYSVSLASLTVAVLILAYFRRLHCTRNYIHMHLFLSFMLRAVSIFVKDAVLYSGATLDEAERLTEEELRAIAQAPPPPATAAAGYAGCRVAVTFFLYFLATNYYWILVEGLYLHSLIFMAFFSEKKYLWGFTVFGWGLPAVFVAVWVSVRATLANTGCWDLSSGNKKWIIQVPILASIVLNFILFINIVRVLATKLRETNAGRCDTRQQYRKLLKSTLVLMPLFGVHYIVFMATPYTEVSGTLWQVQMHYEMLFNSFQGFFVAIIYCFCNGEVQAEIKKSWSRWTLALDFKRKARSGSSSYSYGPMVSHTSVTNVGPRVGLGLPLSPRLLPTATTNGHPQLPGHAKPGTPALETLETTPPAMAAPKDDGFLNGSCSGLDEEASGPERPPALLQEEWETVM

**Q.** PTH (ligand) was tested. Which EC50 (cAMP, PTH1 cellular assay) did it give?
**A.** The EC50 (cAMP, PTH1 cellular assay) was 1.4 nM.

**Q.** And the Maximal response?
**A.** The Maximal response was 105%.

— patent US20260248925A1
